Target: the molecule itself
Assay: crystal structure

B1: NapA from Thermus thermophilus, triple cysteine mutant (Met20, Val166, Val326 to cysteine) (natural protein)
chain: MHGAEHLLEIFYLLLAAQVCAFIFKRLNQPVVIGEVLAGVLVGPALLGLVHEGEILEFLAELGAVFLLFMVGLETRLKDILAVGKEAFLVAVLGVALPFLGGYLYGLEIGFETLPALFLGTALVATSVGITARVLQELGVLSRPYSRIILGAAVIDDVLGLIVLACVNGVAETGQVEVGAITRLIVLSVVFVGLAVFLSTLIARLPLERLPVGSPLGFALALGVGMAALAASIGLAPIVGAFLGGMLLSEVREKYRLEEPIFAIESFLAPIFFAMVGVRLELSALASPVVLVAGTVVTVIAILGKVLGGFLGALTQGVRSALTVGCGMAPRGEVGLIVAALGLKAGAVNEEEYAIVLFMVVFTTLFAPFALKPLIAWTERERAAKEGSENLYFQ
B1: binds.
